According to US7220822:

Target: CD80-Ig (extracellular domain of CD80 fused with the constant region of mouse IgG1 heavy chain) (mouse)
Experiment: SPR, CD28-Ig (187 nM to 12 µM) over CD80-Ig captured by anti-mouse IgG1 Fc

CD28-Ig (Fc fusion)
koff: 0.563 s⁻¹ | kon: 138000 M⁻¹ s⁻¹
